The text below walks through data of US20230295281A1.

Assay [1] addresses oxidized LDL (oxidized low-density lipoprotein) (UniProt P04114). Nature of the assay: competition ELISA on coated oxLDL; wells preincubated with Pentaglobin; competitor: IgA autoantibodies of COVID-19 sera. In general terms: In an ELISA, binding on a coated surface is turned into a signal by an enzyme label.
For assay [2] the target is unchanged. Briefly: competition ELISA on coated oxLDL; wells preincubated with Pentaglobin; competitor: IgG autoantibodies of COVID-19 sera.

For the substance “Pentaglobin (human polyclonal immunoglobulin infusion preparation enriched for IgM and IgA)”, the percent inhibition of autoantibody binding to oxLDL in assay [1] and in assay [2] was greater than 20% throughout.
